The target in test [1] is nYFP-CmoNAC1 (pumpkin).
For test [2], the target named is nYFP-CmoNAC1 (pumpkin). This is another data set of the same source.

Here are results for one substance from PMC11077054.

Regarding CmoDREB2A-cYFP (natural protein), in the test with nYFP-CmoNAC1 (pumpkin) [1], the LUC/RLU ratio of the reporter with the NACbs of the CmoNCED6 promoter in tobacco: CmoNAC1 + CmoDREB2A against CmoNAC1 alone turned out to be 87% and the LUC/RLU ratio of the reporter with the NACbs of the CmoRBOHD1 promoter in tobacco: CmoNAC1 + CmoDREB2A against CmoNAC1 alone amounted to 67%. In the test with nYFP-CmoNAC1 (pumpkin) [2], the LUC/RLU ratio of the reporter with the NACbs of the CmoAKT1;2 promoter in tobacco: CmoDREB2A + CmoNAC1 against CmoNAC1 alone is 99% and the LUC/RLU ratio of the reporter with the NACbs of the CmoHKT1;1 promoter in tobacco: CmoDREB2A + CmoNAC1 against CmoNAC1 alone worked out at 107%.
